The values that follow come from US20170145086A1 (VISTERRA, published 2017).

In the experiment the target is T1, HA-GCN4 hAPRIL (amino acid residues 105-250) (human, UniProt O75888 105-250).
T1 construct: Bought (R&D Systems); also called HA-tagged GCN4 human APRIL; HA-GCN4-huAPRIL; not shown: N-terminal HA tag; GCN4 isoleucine zipper oligomerization domain
T1 sequence: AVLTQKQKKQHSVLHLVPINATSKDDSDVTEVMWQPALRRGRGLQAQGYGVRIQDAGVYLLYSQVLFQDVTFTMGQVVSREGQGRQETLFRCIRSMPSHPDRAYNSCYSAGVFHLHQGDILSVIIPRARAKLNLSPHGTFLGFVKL
As to the kind of experiment: blocking ELISA; blocked: human APRIL binding to BCMA-Fc. The method, boiled down: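 HA-GCN4-tagged human APRIL (15 ng/mL) preincubated 1 h at 30 °C with antibody (0.03–30 μg/mL), then added 1 h at 30 °C to plates coated with BCMA-Fc. Bound APRIL detected with anti-HA-HRP/TMB at 450 nm; IC₅₀ from 4-parameter fit of antibody titration curves.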

B1: monoclonal antibody 4540 (antibody, V domains shown)
VH: QVQLQQSGPELVKPGASVKISCKASGYTFADYYINWVKQRPGQGLEWIGWIFPGSGSTYYNEKFKGKATLTVDKSSSTAYMLLSSLTSEDSAVYFCARGDSGRAMDYWGQGTSVTVSS
VL: DIQMTQSPSSLSASLGGKVTITCKASQDINKYIAWYQHKPGKGPRLLIHYTSTLQSGIPSRFSGSGSGRDYSFSISNLEPEDNATYYCLQYDNLLTFGAGTKLELK
notes: mouse-derived
Take B1: the IC50 is 670 pM and the “Relative Activity (normalised to 2419)” value was determined as 2.85.
